Measured values: patent publication US20030065144A1

Biological target: UNC-49B GABA receptor subunit (UNC-49B.1 isoform) (C. elegans)
Test: cell-based or functional assay

Substance | GABA concentration required to produce half-maximal channel activity (EC50), Xenopus oocytes injected with UNC-49B.1 mRNA, two-electrode voltage clamp [µM] | single main conductance state, single channel recordings in HEK-293 cells expressing UNC-49B alone [pS] | EC50 value for GABA, Xenopus oocytes injected with equal amounts of UNC-49B and UNC-49C RNA, two-electrode voltage clamp [µM] | single main conductance state, single channel recordings in HEK-293 cells transfected with UNC-49B and UNC-49C [pS]
UNC-49B GABA receptor subunit (UNC-49B.1 isoform) | 43.7 | 37.5 | – | –
UNC-49C GABA receptor subunit | – | – | 108 | 30.9
